{
  "source": "paper PMC6770759",
  "biological_target": "porcine pancreatic elastase (porcine) (UniProt P00772)",
  "sequence (P00772 27-266)": "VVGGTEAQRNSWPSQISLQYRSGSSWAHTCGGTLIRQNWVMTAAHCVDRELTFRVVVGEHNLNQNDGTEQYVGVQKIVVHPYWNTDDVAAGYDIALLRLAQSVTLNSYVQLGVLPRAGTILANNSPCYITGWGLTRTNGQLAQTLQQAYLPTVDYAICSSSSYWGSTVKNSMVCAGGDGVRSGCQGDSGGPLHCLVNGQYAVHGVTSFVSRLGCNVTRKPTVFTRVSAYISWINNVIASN",
  "data": [
    {"substance": "Alpha-1-antitrypsin (standard AAT, purified from human plasma) (from UniProt P01009 25-418) (natural protein)", "values": [
      {"measurement": "elastase inhibition % (hydrolysis of N-succinyl-tri-l-alanine-4-nitroanilide read at 410 nm), AAT from 7.5 to 120 µg/mL", "result": 97, "unit": "%"}
    ]}
  ]
}
